Where a chain is given by its changes, count along the chain named.
T1: human DKK1 (human, UniProt O94907 32-266)
T1 construct: also called huDKK1; hDKK1
T1 sequence: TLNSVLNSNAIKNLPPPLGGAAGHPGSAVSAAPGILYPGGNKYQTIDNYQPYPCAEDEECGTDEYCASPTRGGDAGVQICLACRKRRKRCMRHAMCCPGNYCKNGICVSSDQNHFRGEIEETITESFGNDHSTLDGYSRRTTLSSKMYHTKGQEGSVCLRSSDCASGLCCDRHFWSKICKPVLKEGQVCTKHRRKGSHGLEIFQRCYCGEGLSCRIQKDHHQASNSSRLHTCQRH

T2: mouse DKK1 (mouse, UniProt O54908 32-272)
T2 construct: also called murine DKK1
T2 sequence: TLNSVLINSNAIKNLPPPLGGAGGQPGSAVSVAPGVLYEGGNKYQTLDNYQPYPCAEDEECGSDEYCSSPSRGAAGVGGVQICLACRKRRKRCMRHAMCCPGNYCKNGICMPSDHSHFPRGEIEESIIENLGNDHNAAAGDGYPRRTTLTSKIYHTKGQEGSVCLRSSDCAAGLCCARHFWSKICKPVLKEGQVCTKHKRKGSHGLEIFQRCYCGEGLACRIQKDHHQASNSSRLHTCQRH

B1: 5.23.1 (antibody, V domains shown)
VH: QVQLVESGGGVVQPGRSLRLSCAASGFTFSSYGMHWVRQAPGKGLEWVAVIWCDGSNKYYADSVKGRFTISRDSSKNTLYLQMNSLRAEDTAVYYCARGGYGSGSYEDYYYGMDVWGQGTTVTVSS
VL: not shown
B2: 5.80.1 (antibody, V domains shown)
VH: EVQLVQSGAEVKKPGESLKISCKGSGYSFTSYWIGWVRQMPGKGLEWMGIIYPGDSDTRYSPSFQGQVTISADKSISTAYLQWSSLTASDTAMYYCARQGESFDYWGQGTLVTVSS
VL: QSVLTQPPSVSGAPGQRVTISCTGSSSNIGADYDVHWYQQLPGTAPKLLIYDYSNRPSGVPDRFSGSKSGTSASLAITGLQAEDEADYYCQSYDNSLSGYVVFGGGTKLTVL
notes: Fully human hybridoma IgG, lambda (Vl)
B3: 5.78.1 (antibody, V domains shown)
VH: QVQLVESGGGVVQPGRSLRLSCAASGFTFSSYGMHWVRQAPGKGLEWVAVILYDGSDNYYADSVKGRFTISRDNSKNTLYLQMNSLRAEDTAVYYCAREGIAVAGDYYYYGMDVWGQGTTVTVSS
VL: EIVLTQSPGTLSVSPGERATLSCRASQSVSSSYLAWYQQKPGQAPRLLIYGASGRATGIPDRFSGSGSGTDFILTISRLEPEDFAVYYCQQYGSSFTFGGGTKVEIK
notes: Fully human hybridoma IgG, kappa (Vk)
B4: 5.17.1 (antibody, V domains shown)
VH: QVQLQESGPGLVKPSETLSLTCTVSGGSISSYYWSWIRQPPGKGLEWIGYIYYSGNTNYNPSLKSRVTISVDTSKNQFSLKLRSVTAADTAVYYCARYNWNNDLFDYWGQGTLVTVSS
VL: DIQMTQSPSSLSASVGDRVTITCQASQDINNYLNWYQQKPGKAPNLLIYDASNLETGVPSRFSGSGSGTDFTFTISSLQPADIATYYCQQYDDFPLTFGGGTKVEIK
notes: as for B3
B5: 5.40.1 (antibody, V domains shown)
VH: B4 VH with Q3L, P40T, I51V, N56S, N58S, V71M, D72Y, N76T, Q77E, R83S
VL: B4 VL with Q3R, M4L, N30S, K39E, N45K, A81E, D93N
notes: as for B3
B6: 5.31.1 (antibody, V domains shown)
VH: B3 VH with L52W, S56R, D57N, N58K, E99G, I101G, G105D, D106Y, Y107N
VL: B4 VL with M4V, N30S, N45K, L46F, T56A, A81E, D93N, F94L
notes: as for B3
B7: 2.47.1 (antibody, V domains shown)
VH: QVQLQESGPGLVKPSQTLSLTCTVSGGSISSGGYYWSWIRQHPGKGLEWIGDIYYSGSTYYNPSLKSRVTISVDTSKNQFSLKLSSVTAADTAVYYCARDRAYGDYGGDYYYGMDVWGQGTTVTVSS
VL: DIVMTQTPLSLPVTPGEPASISCRSSQSLLDSDDGDTYLDWYLQKPGQSPQLLIYTLSYRASGVPDRFSGSGSGTDFTLKISRVEAEDVGVYYCMQRIEFPFTFGPGTKVDIK
notes: as for B3
B8: 5.77.1 (antibody, V domains shown)
VH: QVQLVQSGAEVKKPGASVKVSCKASGYTFTSYDINWVRQATGQGLEWMGWMNLNSDNTGYAQKFQGRVTMTRNTSISTAYMELSSLRSEDTAVYYCASIAARRDYNYYGMDVWGQGTKVTVSS
VL: QSPSVSVAPGQTARITCGGNNIGSKSVHWYQQKPGQAPVLVVYDDSDRPSGIPERFSGSNSGNTATLTISRVEAGDEADYYCQVWDSSSDHWVFGGGTKLTVL
notes: as for B2
B9: 2.20.1 (antibody, V domains shown)
VH: QVQLVESGGGVVQPGRSLRLSCAASGFTFSSYGMHWVRQAPGKGLEWVAVISYDGSDKYYADSVKGRFTISRDNSKNTLYLQMNSLRAEDTAVYYCARDQWGGSPAGPWGQGTLVTVSS
VL: DIVMTQTPLSLSVIPGQPASISCKSSQSLLHSDGKTYLYWYLQRPGQPPQLLIYEVSNRFSGVPHRLSGSGSGTDFTLKISRVEAEDVGVYYCMQSIQVPWTFGQGTKVEIK
notes: as for B3
B10: 2.41.1 (antibody, V domains shown)
VH: QVQLVESGGGVVQPGRSLRLSCAASGFTFSSYGMHWVRQAPGKGLEWVAVISYDGSDKYYADSVKGRFTISRDNSKNTLYLQMNSLRAEDTAVYYCARAGYSLYYYYGMDVWGQGTTVTVSS
VL: B9 VL with I14T, R44K, H65D, L67F, I97K, V99L, W101F, Q105P, E110D
notes: as for B3
B11: 6.139.5 (antibody, V domains shown)
VH: QVQLVESGGGVVQPGRSLRLSCAASGFTFSSYGMHWVRQAPGKGLEWVAVISYDGGDQYYADSVKGRFTISRDNSKNTLYLQMNSLRTEDTAEYYCARELRVLWGQGTLVTVSS
VL: B9 VL with I14T, G16R, R44K, L51F, H65D, L67F, V99L
notes: as for B3
B12: 6.147.4 (antibody, V domains shown)
VH: QVQLVESGGGVVQPGRSLRLSCAASGFTFSRYDMHWVRQAPGKGLEWVAIIFYDGSNKYYADPVKGRFTISRDNSKNTLYLQMNSLRAEDTAVYYCATLAAAFDYWGQGTLVTVSS
VL: YVLTQPPSVSVAPGQTARITCGGNNIGSKSVHWYQQKPGQAPVLVVYDDSDRPSEIPERFSGSNSGNTATLTISRVEAGDEADYYCQVWDSSSDHVVFGGGTRLTVL
notes: as for B2
B13: 2.4.1 (antibody, V domains shown)
VH: QVQLMQSGAEVKKPGASVKVSCKASGYTFTSYGISWVRQAPGQGLEWMGWISADNGHTNYAQKLQGRVTMTTDTSTSTAYMELRSLRSDDTAVYYCARDGELLNYYYYYGMDVWGQGTTVTVSS
VL: DIQMTQSPSSLSASVGDRVTITCRASQGIRDDLGWFQQKPGKAPKRLIYAASSLQSGVPSRFSGSGSGTEFTLTISSLQPEDFATYYCLQHNSYPCSFGQGTKLEFK
notes: as for B3
B14: 5.65.1 (antibody, V domains shown)
VH: EVQLLESGGGLVQPGGSLRLSCAASGFTSGNYAMSWVRQAPGKGLEWVSAISGGGGTTYYADSVEGRFTISRDNSKNTLYLQLNSLRAEDTAVYYCAKEFGELEPRFDYWGQGTLVTVSS
VL: SYVLTQPPSVSVAPGQTARITCGGNNIGSKSVHWYQQKPGQAPVLVVYDDSDRPSGIPERFSGSNSGNTATLTISRVEAGDEADYYCQVLDSSSDHVIFGGGTKLTVL
notes: as for B2
B15: 5.76.1 (antibody, V domains shown)
VH: QLQLQESGPGLVKPSETLSLTCTVSGGSISSSNYYWGWIRQPPGKGLEWIGTIYYSGSTYYTPSLKSRVTISVDTSKNQFSLKLSSVTAADTAVYYCARERAIAVAAIVFFDYWGQGTLVTVSS
VL: B14 VL with K30E, L90W, S94N, I98V
notes: as for B2
B16: 5.85.1 (antibody, V domains shown)
VH: B2 VH with G24V, S31T, E46D, T87K, E101I, S102A
VL: QSVLTQPPSVSGAPGQRVTISCTGSSSNIGAGYDVHWYQQLPRTAPKLLIYGNSNRPSGVPDRFSDSKSGTSASLAITGLQAEDEADYYCQSYDSSLSVIFGGGTKLTVL

target: T1, human DKK1; assay: BiaCore 2000
Description: BiaCore allowed us to determine the kd of the selected antibodies.

| Binder | koff [s⁻¹] |
| --- | --- |
| B1 | 0.000181 |
| B2 | < 2e-05 |
| B3 | 0.000191 |
| B4 | 0.000303 |
| B5 | 0.000281 |
| B6 | 0.000105 |
| B7 | 0.00092 |
| B8 | < 2e-05 |
| B9 | 0.00024 |
| B10 | 0.0013 |
| B11 | 0.000209 |
| B12 | 0.000251 |
| B13 | 0.0006 |
| B14 | 0.000525 |
| B15 | 0.000241 |

target: T1, human DKK1; assay: cell-based or functional assay

| Binder | ST2 EC50 [nM] | TCF EC50 [nM] |
| --- | --- | --- |
| B1 | 4.29 | 1.01 |
| B2 | 5.03 | 3.22 |
| B16 | 10.6 | 4.53 |
| B3 | 5.7 | 3.75 |
| B4 | 8.24 | 3.48 |
| B5 | 7.24 | 3.75 |
| B6 | 10.4 | 5.29 |
| B7 | – | 60.7 |
| B8 | 6.23 | 2.14 |
| B9 | 34.7 | 10.7 |
| B10 | 89.1 | 32.1 |
| B11 | 3.93 | 9.78 |
| B12 | 2.57 | 3.95 |
| B13 | 17.2 | 38.6 |
| B14 | 5.87 | 4.21 |
| B15 | 4.09 | 2.55 |

target: T1, human DKK1; assay: KinExA 3000 equilibrium binding in solution
Experimental: (§1) Accordingly, the affinity of several of these antibodies to DKK1 was further assessed by an equilibrium binding analysis using the more sensitive KinExAtm 3000. For these measurements, Reacti-Gel 6× beads (Pierce, Rockford, Ill.) were pre-coated with human, cynomologous or mouse DKK1 and blocked with BSA. One hundred pM, 300 pM, or 1000 pM of the antibody was mixed with various concentrations of human, mouse or cyno DKK1, ranging in concentration from 1 pM to 50 nM, and equilibrated at room temperature for 8 hours. The mixtures were then passed over the DKK1-coated beads. The amount of bead-bound anti-DKK1 antibody was quantified using goat anti-human-IgG antibody labeled with a fluorescent tag (Cy5; Jackson Immuno Research, West Grove, Pa.). The amount of fluorescent signal measured was proportional to the concentration of free anti-DKK1 antibody in each reaction mixture at equilibrium. The dissociation equilibrium constant (Kd) was obtained from nonlinear regression of the competition curves using a dual-curve one-site homogeneous binding model using the KinExA software.

| Binder | Kd [nM] |
| --- | --- |
| B2 | 0.06 |
| B8 | 0.008 |
| B11 | 0.11 |
| B12 | 0.125 |

target: T2, mouse DKK1; assay: KinExA 3000 equilibrium binding in solution
Experimental: as §1

| Binder | Kd [nM] |
| --- | --- |
| B2 | 0.025 |
| B8 | 0.14 |

— patent US20210040189A1 (Amgen, published 2021)
